These results are taken from PMC2572193, “Structural Analysis of the Interactions Between Paxillin LD Motifs and α-Parvin” (Structure(London, England:1993), 2008).

Entries after “also recorded” stand apart in the source; their conditions may differ. Where a SMILES comes first, the peptide text is derived from it. Where no end group is shown, it is not given here. The star is where a group is joined. 5FAM = O=C1OC2(c3ccc(O)cc3Oc3cc(O)ccc32)c2ccc(C(=O)*)cc21

The Kd is the free concentration of one partner at which half of the binding sites on the other are occupied at equilibrium, for simple one-to-one binding.

The target in series [1] is T1, α-parvin-CHC (residues 242–372) (Homo sapiens, UniProt Q9NVD7).
T1 construct: α-parvin-CHC (242–372) were subcloned; GST (N, cleaved yes); made in house; host or cells: Escherichia coli BL21
T1 sequence (Q9NVD7 242-372): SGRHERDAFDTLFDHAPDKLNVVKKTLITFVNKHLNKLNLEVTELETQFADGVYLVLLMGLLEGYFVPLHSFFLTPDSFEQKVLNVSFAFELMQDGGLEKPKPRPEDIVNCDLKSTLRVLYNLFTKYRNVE
Kind of series: NMR 1H-15N HSQC titration of 15N-enriched α-parvin-CHC with LD peptides. Type of series: binding. Particulars: for KD / affinity range in words: NMR titration, 50 mM sodium phosphate, 100 mM NaCl, pH 6.9, 25°C.

The nature of series [2]: Solubility of LD peptide noted in NMR titration. Type of series: physicochemical. Particulars: NMR titration buffer, 50 mM sodium phosphate, 100 mM NaCl, pH 6.9. The method, then:
Figure S2. Determination of KD-Values for the Interaction of α−Parvin-CHC w ith LD Peptides […]
Titrations were performed with peptides representing the LD1 (A), LD 2(B), LD3 (C), LD4 (D), and […]
δ∆(1H15N) > 0.2 ppm for LD1 and LD2) were fitted globally to a single-site model (see experimental procedures). The errors refer to the fit only and exclude experimental errors. Note […]
respectively. No value could be derived for LD5 due to its low affinity. The KD-value for LD1 represents the weighted average over both antiparallel binding orientations, which exchange fast […]

For series [3], the target named is paxillin LD1 (Homo sapiens) (UniProt P49023). The following applies: cited from earlier work.
Series [4] has as its target T2, α-parvin-CHC (C-terminal calponin homology domain fragment of human α-parvin, residues 242-372) (human, UniProt Q9NVD7 242-372).
T2 construct: α-parvin, human, residues 242-372: the entire C-terminal CH domain and a portion of the inter-CH domain linker; Expressed from pGEX-6P1 (BamHI/EcoRI); also called type-5 CH domain of α-parvin; actopaxin; source: E. coli BL21, GST fusion, purified (glutathione sepharose, 3C-protease cleavage, Superdex 75); 15N-enriched for NMR
T2 sequence (looked up): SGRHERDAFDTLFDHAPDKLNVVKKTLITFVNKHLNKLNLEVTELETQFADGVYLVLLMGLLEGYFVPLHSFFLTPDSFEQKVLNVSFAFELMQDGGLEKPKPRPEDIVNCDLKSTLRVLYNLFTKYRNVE
Kind of series: NMR titration; 1H-15N HSQC of 235 μM 15N-enriched α-parvin-CHC titrated with LD peptide; 50 mM sodium phosphate, 100 mM NaCl, 2 mM DTT, 5% D2O, pH 6.9, 25°C; global fit to a single-site model. Particulars: both partners purified.

Series [5] deals with T2, α-parvin-CHC (C-terminal calponin …). The series can be described thus: fluorescence polarisation; fluorescence anisotropy; 50 nM 5-FAM-labeled LD1 peptide, protein up to 300 μM; 100 mM potassium phosphate, 2 mM DTT, pH 8.0, 25°C; global fit to a single-site model. The following applies: both partners purified. On the technique in general: In fluorescence polarisation assays a small probe gives low polarisation when free and higher when bound to something large.

The target of series [6] is T3, full-length human α-parvin (1-372) (human, UniProt Q9NVD7 1-372).
T3 construct: α-parvin, human, full length, residues 1-372; Expressed from pGEX-6P1 (EcoRI/EcoRI); also called full-length α-parvin; actopaxin; source: E. coli BL21, GST fusion, purified (glutathione sepharose, 3C-protease cleavage, MonoQ)
T3 sequence (looked up): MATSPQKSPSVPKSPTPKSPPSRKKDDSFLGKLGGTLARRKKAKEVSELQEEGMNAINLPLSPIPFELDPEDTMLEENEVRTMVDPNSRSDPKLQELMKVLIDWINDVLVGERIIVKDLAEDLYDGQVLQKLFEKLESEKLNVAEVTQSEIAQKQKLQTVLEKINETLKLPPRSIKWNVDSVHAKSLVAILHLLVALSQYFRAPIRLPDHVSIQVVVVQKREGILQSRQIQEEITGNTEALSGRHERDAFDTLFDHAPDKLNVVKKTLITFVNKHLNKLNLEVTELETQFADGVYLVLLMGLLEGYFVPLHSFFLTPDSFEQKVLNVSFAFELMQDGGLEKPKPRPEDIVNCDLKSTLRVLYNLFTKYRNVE
The description is as above. The following applies: both partners purified.

As to `CC[C@H](C)[C@H](NC(=O)[C@H](Cc1c[nH]cn1)NC(=O)[C@H](CO)NC(=O)[C@@H](NC(=O)[C@@H](NC(=O)[C@H](CO)NC(=O)[C@H](CCC(=O)O)NC(=O)[C@H](CC(C)C)NC(=O)[C@H](CC(=O)O)NC(=O)[C@H](C)NC(=O)[C@H](CC(C)C)NC(=O)[C@H](CC(C)C)NC(=O)[C@H](C)NC(=O)[C@H](CC(=O)O)NC(=O)[C@H](CC(C)C)NC(=O)[C@H](CC(=O)O)NC(=O)[C@H](CC(=O)O)NC(=O)[C@@H](N)CCSC)[C@@H](C)O)[C@@H](C)O)C(=O)N[C@@H](CO)C(=O)N[C@@H](CCCCN)C(=O)O` [LD1] (H-MDDLDALLADLESTTSHISK-OH), the “KD / affinity range in words” value in series [1] is given as “micromolar range”.
For `CC(C)C[C@H](NC(=O)[C@H](CCC(=O)O)NC(=O)[C@H](CC(C)C)NC(=O)[C@H](CC(C)C)NC(=O)[C@H](CC(C)C)NC(=O)[C@H](CCCNC(=N)N)NC(=O)[C@H](CC(=O)O)NC(=O)[C@H](CC(C)C)NC(=O)[C@H](CCC(=O)O)NC(=O)[C@H](CO)NC(=O)[C@H](CC(C)C)NC(=O)[C@@H](N)CC(N)=O)C(=O)N[C@@H](CC(N)=O)C(=O)N[C@@H](C)C(=O)N[C@H](C(=O)N[C@@H](CCC(N)=O)C(=O)N[C@@H](Cc1c[nH]cn1)C(=O)N[C@@H](CC(N)=O)C(=O)N1CCC[C@H]1C(=O)N1CCC[C@H]1C(=O)O)C(C)C` [LD2], the “KD / affinity range in words” value in series [1] was “micromolar range”.
`CC(C)C[C@H](NC(=O)[C@H](CCC(=O)O)NC(=O)[C@H](CC(=O)O)NC(=O)[C@H](CC(C)C)NC(=O)[C@H](CC(C)C)NC(=O)[C@H](CO)NC(=O)[C@H](CCC(=O)O)NC(=O)[C@@H](NC(=O)[C@H](CO)NC(=O)[C@@H]1CCCN1C(=O)[C@H](CCCNC(=N)N)NC(=O)[C@@H](N)C(C)C)C(C)C)C(=O)N[C@@H](CCC(=O)O)C(=O)N[C@@H](CO)C(=O)N[C@@H](CO)C(=O)N[C@H](C(=O)N1CCC[C@H]1C(=O)N[C@@H](CO)C(=O)N1CCC[C@H]1C(=O)N[C@H](C(=O)O)C(C)C)C(C)C` [LD3] (H-VRPSVESLLDELESSVPSPV-OH): the “KD / affinity range in words” value in series [1] is on record as “relatively low affinity; also recorded: millimolar range”.
Turning to `CSCC[C@H](NC(=O)[C@H](Cc1ccccc1)NC(=O)[C@H](CCCCN)NC(=O)[C@H](Cc1ccccc1)NC(=O)[C@H](CC(=O)O)NC(=O)[C@H](CO)NC(=O)[C@H](CC(C)C)NC(=O)[C@H](CO)NC(=O)[C@H](C)NC(=O)[C@H](CCSC)NC(=O)[C@H](CC(C)C)NC(=O)[C@H](CCC(=O)O)NC(=O)[C@H](CC(=O)O)NC(=O)[C@H](CC(C)C)NC(=O)[C@H](CCC(=O)O)NC(=O)[C@H](CCCNC(=N)N)NC(=O)[C@@H](NC(=O)[C@H](C)N)[C@@H](C)O)C(=O)N[C@@H](C)C(=O)N[C@@H](CCC(N)=O)C(=O)O` [LD4] (H-ATRELDELMASLSDFKFMAQ-OH), the “KD / affinity range in words” value in series [1] is on record as “micromolar range”. For the same molecule, in series [2], the “solubility (in words)” value is listed as “poor solubility”.
Turning to PGSQLDSMLGSLQSDLNKLG [LD5], the “KD / affinity range in words” value in series [1] is “low affinity; also recorded: millimolar range; also recorded: mM range ^a”.
In the case of “PROXYL-labeled LD1: N-terminally blocked LD1 with N-terminal methionine replaced by cysteine, labeled with 3-maleimido-PROXYL (C(3‑maleimido‑PROXYL)DDLDALLADLESTTSHISK; also: N-terminally blocked (group not given here))”, the “KD-value compared with underivatized LD1 peptide” value in series [1] (data not shown) was “the same”.
In the case of α-parvin CHC (from UniProt Q9NVD7), in series [3], the Kd is 1.2 mM.

B1: paxillin LD1 peptide (human paxillin residues 1-20) (peptide)
peptide: MDDLDALLADLESTTSHISK
notes: paxillin, human, LD1 motif, residues 1-20; source: synthetic peptide, bought: Severn Biotech
In series [4], B1 registered a Kd of 96 ± 2 µM.

B2: paxillin LD4 peptide (human paxillin residues 262-281) (peptide)
peptide: ATRELDELMASLSDFKFMAQ
notes: paxillin, human, LD4 motif, residues 262-281; source: synthetic peptide, bought: Severn Biotech
B2 came in with a Kd in series [4] of 140 ± 30 µM.

B3: paxillin LD3 peptide (human paxillin residues 213-232) (peptide)
peptide: VRPSVESLLDELESSVPSPV
notes: paxillin, human, LD3 motif, residues 213-232; source: synthetic peptide, bought: Severn Biotech
B3 displayed a Kd in series [4] of 2300 ± 100 µM.

B4: paxillin LD2 peptide (human paxillin residues 141-160) (peptide)
peptide: NLSELDRLLLELNAVQHNPP
notes: paxillin, human, LD2 motif, residues 141-160; source: synthetic peptide, bought: Severn Biotech
With B4, the Kd in series [4] came to 204 ± 3 µM.

B5: 5-FAM-labeled LD1 peptide (paxillin residues 1-20) (peptide)
peptide: MDDLDALLADLESTTSHISK(5FAM)
notes: paxillin, human, LD1 motif, residues 1-20; also called fluorophore-labeled LD1 peptide; source: synthetic peptide, bought: Severn Biotech
As for B5, the Kd in series [5] worked out at 120 ± 20 µM; in series [6] it was 130 ± 22 µM.
